According to the supplement of paper PMC6757056:
± gives the standard deviation of the averaged measurements.

B1: library; a variant is named by its letters at N, in order (parent)
chain: GCUGUCACCGAGAAACUGUGAAGUAUAUCUUAAACCUGGGCACUUAAAAGAUAUAUGGAGUUAGUAGUGCAACCUGCUCGGUCUGAUGAGUCCNNNNNNGGACGAAACAGC

Columns and labels:
cyclic di-GMP [1] = variants of: B1; test: normalized RNA/DNA level without ligand (relative to sTRSVctl = 100) (log10 (% of sTRSVctl)); HEK293T; ligand: cyclic di-GMP (c-di-GMP-II aptamer); higher = less ribozyme self-cleavage, higher mRNA level; conditions: reporter: mCherry (pCS4076), ligand present: no
Summary of the method: (§1)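 HEK293T cells received ligand, where used, 1 h before being transfected with 4 µg per 6-well well of library plasmids encoding reporter-linked ribozyme switches. After 72 h, RNA was extracted with EDTA and sequenced. RNA level was derived from RNA reads per DNA read, normalized to a spiked-in non-cleaving sequence or the top sequences, then scaled and log-transformed. Values were ×100 then log10, the top set was 25 sequences, and the minimum was 100 DNA reads.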

cyclic di-GMP [2] = variants of: B1; test: normalized RNA/DNA level with ligand (relative to sTRSVctl = 100) (log10 (% of sTRSVctl)); HEK293T; ligand: cyclic di-GMP (c-di-GMP-II aptamer); ligand concentration (+) RNA-Seq: 1 mM; higher = less ribozyme self-cleavage, higher mRNA level; conditions: reporter: mCherry (pCS4076), ligand present: yes
Summary of the method: as §1

Row | Variant | normalized RNA/DNA level without ligand (log10) (cyclic di-GMP [1]) | normalized RNA/DNA level with ligand (log10) (cyclic di-GMP [2])
1 | GCUGUCACCGAGAAACUGUGAAGUAUAUCUUAAACCUGGGCACUUAAAAGAUAUAUGGAGUUAGUAGUGCAACCUGCUCGGUCUGAUGAGUCCAUGUCAGGACGAAACAGC [AUGUCA] | 1.59 ± 0.072 | 1.78 ± 0.066
2 | GCUGUCACCGAGAAACUGUGAAGUAUAUCUUAAACCUGGGCACUUAAAAGAUAUAUGGAGUUAGUAGUGCAACCUGCUCGGUCUGAUGAGUCCCUAUGGGGACGAAACAGC [CUAUGG] | 1.75 ± 0.049 | 1.87 ± 0.09
3 | GCUGUCACCGAGAAACUGUGAAGUAUAUCUUAAACCUGGGCACUUAAAAGAUAUAUGGAGUUAGUAGUGCAACCUGCUCGGUCUGAUGAGUCCAAACCCGGACGAAACAGC [AAACCC] | 1.718 ± 0.0046 | 1.86 ± 0.09
4 | GCUGUCACCGAGAAACUGUGAAGUAUAUCUUAAACCUGGGCACUUAAAAGAUAUAUGGAGUUAGUAGUGCAACCUGCUCGGUCUGAUGAGUCCCACCGCGGACGAAACAGC [CACCGC] | 1.759 ± 0.015 | 1.85 ± 0.13
5 | GCUGUCACCGAGAAACUGUGAAGUAUAUCUUAAACCUGGGCACUUAAAAGAUAUAUGGAGUUAGUAGUGCAACCUGCUCGGUCUGAUGAGUCCACGCGCGGACGAAACAGC [ACGCGC] | 1.629 ± 0.016 | 1.79 ± 0.11
6 | GCUGUCACCGAGAAACUGUGAAGUAUAUCUUAAACCUGGGCACUUAAAAGAUAUAUGGAGUUAGUAGUGCAACCUGCUCGGUCUGAUGAGUCCUAAUAUGGACGAAACAGC [UAAUAU] | 1.64 ± 0.017 | 1.78 ± 0.11
7 | GCUGUCACCGAGAAACUGUGAAGUAUAUCUUAAACCUGGGCACUUAAAAGAUAUAUGGAGUUAGUAGUGCAACCUGCUCGGUCUGAUGAGUCCAUCCCUGGACGAAACAGC [AUCCCU] | 1.7543 ± 0.001 | 1.91 ± 0.07
8 | GCUGUCACCGAGAAACUGUGAAGUAUAUCUUAAACCUGGGCACUUAAAAGAUAUAUGGAGUUAGUAGUGCAACCUGCUCGGUCUGAUGAGUCCCGCAGUGGACGAAACAGC [CGCAGU] | 1.679 ± 0.005 | 1.82 ± 0.092
9 | GCUGUCACCGAGAAACUGUGAAGUAUAUCUUAAACCUGGGCACUUAAAAGAUAUAUGGAGUUAGUAGUGCAACCUGCUCGGUCUGAUGAGUCCGCUUCCGGACGAAACAGC [GCUUCC] | 1.72 ± 0.023 | 1.85 ± 0.034
10 | GCUGUCACCGAGAAACUGUGAAGUAUAUCUUAAACCUGGGCACUUAAAAGAUAUAUGGAGUUAGUAGUGCAACCUGCUCGGUCUGAUGAGUCCCUGUUUGGACGAAACAGC [CUGUUU] | 1.575 ± 0.0091 | 1.72 ± 0.12
11 | GCUGUCACCGAGAAACUGUGAAGUAUAUCUUAAACCUGGGCACUUAAAAGAUAUAUGGAGUUAGUAGUGCAACCUGCUCGGUCUGAUGAGUCCCUUUAGGGACGAAACAGC [CUUUAG] | 1.73 ± 0.095 | 1.84 ± 0.19
12 | GCUGUCACCGAGAAACUGUGAAGUAUAUCUUAAACCUGGGCACUUAAAAGAUAUAUGGAGUUAGUAGUGCAACCUGCUCGGUCUGAUGAGUCCCUUGUAGGACGAAACAGC [CUUGUA] | 1.57 ± 0.044 | 1.77 ± 0.12
13 | GCUGUCACCGAGAAACUGUGAAGUAUAUCUUAAACCUGGGCACUUAAAAGAUAUAUGGAGUUAGUAGUGCAACCUGCUCGGUCUGAUGAGUCCACUGGCGGACGAAACAGC [ACUGGC] | 1.61 ± 0.084 | 1.79 ± 0.12
14 | GCUGUCACCGAGAAACUGUGAAGUAUAUCUUAAACCUGGGCACUUAAAAGAUAUAUGGAGUUAGUAGUGCAACCUGCUCGGUCUGAUGAGUCCCGUUGUGGACGAAACAGC [CGUUGU] | 1.76 ± 0.018 | 1.86 ± 0.1
15 | GCUGUCACCGAGAAACUGUGAAGUAUAUCUUAAACCUGGGCACUUAAAAGAUAUAUGGAGUUAGUAGUGCAACCUGCUCGGUCUGAUGAGUCCAGCGUAGGACGAAACAGC [AGCGUA] | 1.55 ± 0.087 | 1.71 ± 0.1
16 | GCUGUCACCGAGAAACUGUGAAGUAUAUCUUAAACCUGGGCACUUAAAAGAUAUAUGGAGUUAGUAGUGCAACCUGCUCGGUCUGAUGAGUCCAUAUUUGGACGAAACAGC [AUAUUU] | 1.67 ± 0.018 | 1.84 ± 0.11
17 | GCUGUCACCGAGAAACUGUGAAGUAUAUCUUAAACCUGGGCACUUAAAAGAUAUAUGGAGUUAGUAGUGCAACCUGCUCGGUCUGAUGAGUCCUCUCACGGACGAAACAGC [UCUCAC] | 1.78 ± 0.018 | 1.87 ± 0.066
18 | GCUGUCACCGAGAAACUGUGAAGUAUAUCUUAAACCUGGGCACUUAAAAGAUAUAUGGAGUUAGUAGUGCAACCUGCUCGGUCUGAUGAGUCCUGCCGUGGACGAAACAGC [UGCCGU] | 1.66 ± 0.013 | 1.83 ± 0.12
19 | GCUGUCACCGAGAAACUGUGAAGUAUAUCUUAAACCUGGGCACUUAAAAGAUAUAUGGAGUUAGUAGUGCAACCUGCUCGGUCUGAUGAGUCCGCAGGCGGACGAAACAGC [GCAGGC] | 1.58 ± 0.032 | 1.71 ± 0.025
20 | GCUGUCACCGAGAAACUGUGAAGUAUAUCUUAAACCUGGGCACUUAAAAGAUAUAUGGAGUUAGUAGUGCAACCUGCUCGGUCUGAUGAGUCCUUCCAUGGACGAAACAGC [UUCCAU] | 1.73 ± 0.028 | 1.85 ± 0.15
21 | GCUGUCACCGAGAAACUGUGAAGUAUAUCUUAAACCUGGGCACUUAAAAGAUAUAUGGAGUUAGUAGUGCAACCUGCUCGGUCUGAUGAGUCCCCGCAUGGACGAAACAGC [CCGCAU] | 1.6 ± 0.035 | 1.77 ± 0.096
22 | GCUGUCACCGAGAAACUGUGAAGUAUAUCUUAAACCUGGGCACUUAAAAGAUAUAUGGAGUUAGUAGUGCAACCUGCUCGGUCUGAUGAGUCCUCAGGGGGACGAAACAGC [UCAGGG] | 1.64 ± 0.023 | 1.81 ± 0.12
23 | GCUGUCACCGAGAAACUGUGAAGUAUAUCUUAAACCUGGGCACUUAAAAGAUAUAUGGAGUUAGUAGUGCAACCUGCUCGGUCUGAUGAGUCCUGAUUAGGACGAAACAGC [UGAUUA] | 1.704 ± 0.011 | 1.84 ± 0.11
24 | GCUGUCACCGAGAAACUGUGAAGUAUAUCUUAAACCUGGGCACUUAAAAGAUAUAUGGAGUUAGUAGUGCAACCUGCUCGGUCUGAUGAGUCCACGGGCGGACGAAACAGC [ACGGGC] | 1.7 ± 0.073 | 1.88 ± 0.1
25 | GCUGUCACCGAGAAACUGUGAAGUAUAUCUUAAACCUGGGCACUUAAAAGAUAUAUGGAGUUAGUAGUGCAACCUGCUCGGUCUGAUGAGUCCCAGGUAGGACGAAACAGC [CAGGUA] | 1.57 ± 0.081 | 1.67 ± 0.11
26 | GCUGUCACCGAGAAACUGUGAAGUAUAUCUUAAACCUGGGCACUUAAAAGAUAUAUGGAGUUAGUAGUGCAACCUGCUCGGUCUGAUGAGUCCCUGUACGGACGAAACAGC [CUGUAC] | 1.67 ± 0.033 | 1.82 ± 0.096
